From patent US9023987B2, “Cell-permeable peptide” (Seoul National University R&DB Foundation, priority 2010, dated 2015)

Experiments:
[1] = biological target: T1, human-derived Smurf1 protein (Homo sapiens, UniProt Q9HCE7); experiment: Affinity to Smurf1 by surface plasmon resonance (BIACORE T100); assay type: binding; conditions: 10 mM analyte over Smurf1 coupled to CM5 chip; FIG. 2A
T1 construct: purchased Origene Technologies (Rockville, Md., USA)
Experimental: In order to confirm the affinity between cell permeable peptide-bone differentiation inducing sequence conjugate and Smurf1 by a chemical method, a human-derived Smurf1 protein acting as a ligand in the present experiment was purchased from Origene Technologies (Rockville, Md., USA). The protein ([…]) was coupled to a gold coated surface of a CM5 chip (BIACORE AB, Sweden) on which amino groups are bounded using an EDC/NHS kit (BIACORE AB, Sweden). (Instead of this experimental method, ‘Immobilization’ integrated into the BIACORE® T100 (BIACORE AB, Sweden) software used by the present inventors may be used). In this case, in order to find a suitable pH condition at which the protein may bind to the amino group in the CM5 chip, a method called ‘pH scouting’ was performed, thereby finding a pH condition. As a method of ‘pH scouting’, a method integrated in the BIACORE® T100 (BIACORE AB, Sweden) software used by the present inventors may be used. […]

[2] = biological target: T1, human-derived Smurf1 protein; experiment: Slot-blot assay of binding to Smurf1
Source text: In order to confirm presence or absence of the active site of the cell permeable peptide-bone differentiation inducing sequence conjugate synthesized by the method in Example 1 for binding to Smurf1 and binding degrees according to the concentration, a slot blot assay were used. This experimental method is a molecular biological method of positioning a protein on a membrane and sucking the protein in the other side to strongly attach the protein on a surface of the membrane, directly positioning a material to be confirm an interaction with the attached protein and culturing for a predetermine time to induce the binding, and blotting them using antibodies to confirm the interaction (affinity) between the protein and the material through a difference of each Dot.
1 μg of human-derived Smurf1 protein was input […] per well using a slot blot device (Hoefer, Pharmacia Biotech, USA) and blotted on a predetermined position on a nitrocellulose membrane (2 μm, Pall, USA) in a vacuum state. After blotting, the nitrocellulose membrane was blocked with phosphate buffer solution containing 0.5% Tween® 20 at room temperature for 30 minutes, and then completely dried. […]

[3] = test system: human mesenchymal stem cells (hMSC); experiment: Cytotoxicity by MTT assay; assay type: cell-based; design: dose or concentration left out as unconfirmed; conditions: 24, 48, and 72 hours, FIG. 5
Experimental: In order to confirm whether or not cell proliferation is affected by potential toxicity when the cell permeable peptide-bone differentiation inducing sequence conjugate and control domains are cultured with hMSC, a 3-[4,5-dimethylthiazo-2-yl]-2,5-diphenyl tetrazolium bromide thiazolyl blue (MTT) assay method was used.
The MTT assay method is a method for measuring cytotoxicity by measuring absorbance of formazan produced as mitochondrial dehydrogenases in alive and metabolically active cells reduces MTT to indicate the absorbance as a percentage based on the control group. In this case, the measured absorbance reflects a concentration of the alive and metabolically active cells. 2,3,5-triphenyl tetrazolium chloride (TTC) is reduced to formazan in live cells. The formazan is insoluble purple color, and a respiration rate may be measured by a degree of color. The absorbance of formazan is maximal at 540 nm, and the absorbance measured at this wavelength reflects the concentration of the alive and metabolically active cells. Since a linear relationship between the absorbance and the concentration of the cells is not established when a concentration of cells in well to be measured is excessively high or low, a process of determining an optimal concentration of the cells was performed. […]

T1 sequence (Q9HCE7 whole entry): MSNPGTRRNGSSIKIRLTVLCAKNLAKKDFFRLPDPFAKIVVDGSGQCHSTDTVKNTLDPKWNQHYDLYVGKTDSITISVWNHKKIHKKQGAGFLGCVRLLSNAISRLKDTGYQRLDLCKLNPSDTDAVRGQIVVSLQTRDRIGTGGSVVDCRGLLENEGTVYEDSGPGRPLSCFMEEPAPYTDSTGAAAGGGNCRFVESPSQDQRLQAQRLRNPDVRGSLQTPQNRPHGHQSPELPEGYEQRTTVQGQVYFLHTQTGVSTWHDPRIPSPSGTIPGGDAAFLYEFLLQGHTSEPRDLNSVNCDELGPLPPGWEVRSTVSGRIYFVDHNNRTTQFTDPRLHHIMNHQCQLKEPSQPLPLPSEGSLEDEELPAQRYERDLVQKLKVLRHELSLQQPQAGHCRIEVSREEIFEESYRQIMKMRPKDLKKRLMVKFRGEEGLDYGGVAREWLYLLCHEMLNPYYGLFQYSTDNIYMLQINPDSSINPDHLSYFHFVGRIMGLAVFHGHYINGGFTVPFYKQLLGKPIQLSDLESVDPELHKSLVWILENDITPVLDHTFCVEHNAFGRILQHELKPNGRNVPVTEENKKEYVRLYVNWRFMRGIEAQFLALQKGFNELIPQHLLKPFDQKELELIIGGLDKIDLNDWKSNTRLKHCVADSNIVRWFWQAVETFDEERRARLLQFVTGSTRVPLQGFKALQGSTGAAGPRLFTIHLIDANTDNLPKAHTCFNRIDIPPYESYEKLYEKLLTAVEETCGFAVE

Substance: NH2-GAPPPADSAP-SSRKKNPNCRRH-C-COONH2 (H-GAPPPADSAPSSRKKNPNCRRHC-NH2; cysteine pairing not given here) [Example 1]
- affinity to Smurf1 [1]: 600 RU
- concentration at which an increase of dot size began ([2]; 0.1, 1, 10, and 100 mM, 4° C., 20 hours, FIG. 2D): 10 mM
- binding to Smurf1 protein detected as dot ([2]; biotinylated domains, slot blot, FIG. 2C): a dot was confirmed
- cytotoxicity (MTT, cell proliferation ability compared with PBS) [3]: did not exhibit cytotoxicity
